# Assay results from patent US7151087.
# B1: RANTES, P13501 24-91 (ligand, human, UniProt P13501 24-91, looked up)
# chain: SPYSSDTTPCCFAYIARPLPRAHIKEYFYTSGKCSNPAVVFVTRKNRQVCANPEKKWVREYINSLEMS
# Substrate: CC chemokine receptor 5 (CCR5), clone 8.5 cDNA, stably expressed on HEK 293 cells (human), P51681
# Experiment: homologous competition against ^125I-RANTES on CCR5.1 cells, 37° C.
# Conditions: remark: other sources report otherwise
# Sequence of CC chemokine receptor 5 (CCR5), clone 8.5 cDNA, stably expressed on HEK 293 cells (human), P51681 (P51681 whole entry): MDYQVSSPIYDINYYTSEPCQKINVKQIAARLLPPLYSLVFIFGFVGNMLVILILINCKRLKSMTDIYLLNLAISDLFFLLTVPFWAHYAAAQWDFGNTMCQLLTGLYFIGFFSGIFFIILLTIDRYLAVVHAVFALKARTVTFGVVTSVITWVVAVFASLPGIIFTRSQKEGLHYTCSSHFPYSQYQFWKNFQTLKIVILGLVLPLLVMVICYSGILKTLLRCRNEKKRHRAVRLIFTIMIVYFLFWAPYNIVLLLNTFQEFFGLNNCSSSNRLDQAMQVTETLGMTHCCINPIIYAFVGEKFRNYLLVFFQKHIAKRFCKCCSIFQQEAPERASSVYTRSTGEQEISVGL
binder,measurement,value
B1,IC50,80 nM
